Source: PMC4167179 (Results in Pharma Sciences, 2012)
No end group written: not given here. mPEG 20 kDa = linear 20 kDa mPEG attached to the Gln side chain; mPEG 5 kDa = linear 5 kDa mPEG attached to the Gln side chain

Key:
[1] = system: rat β-cell line RIN-m5F; assay: In vitro insulin secretion, static incubation of RIN-m5F cells; type: cell-based; settings: for EC50: read-out: In vitro insulin secretion in rat β-cell line RIN-m5F, EC50, 2 mM glucose, 30 min incubation, rat insulin ELISA, mean ± SEM of three experiments
[2] = Pharmacokinetics after subcutaneous injection in rats; type: in vivo, Sprague-Dawley rats; settings: 1 mg/kg s.c.; for Cmax / tmax: plasma ELISA; for tmax: non-compartmental

Substance | EC50 [1] | tmax ([2]; four animals) | other results
GLP-1-(7-36)-(T11Q–Q23N)-amide-Q^11-PEG 5 kDa (HAEGQ(mPEG 5 kDa)FTSDVSSYLEGNAAKEFIAWLVKGR-NH2; UniProt P01275 98-127, looked up, variant T11Q Q23N) | 106.3 ± 0.5 nM |  | 
GLP-1-(7-36)-amide-Q^23-PEG 5 kDa: GLP-1(7-36)-amide monopegylated at glutamine 23 with linear 5 kDa mPEG-NH2 |  | 3 h | t1/2 ([2]; elimination phase of log transformed curve, four animals): 1.7 h; Cmax ([2]; four animals): 160.4 ng/mL

Continued, in another order:

EC50 [1] | Substance | tmax ([2]; four animals) | other results
34.4 ± 0.8 nM | GLP-1-(7-36)-amide-Q^23-PEG 20 kDa: GLP-1(7-36)-amide monopegylated at glutamine 23 with linear 20 kDa mPEG-NH2 | 9 h | AUC (AUC96 h) ([2]; 0→96 h, linear trapezoidal rule, four animals): 16,799.8 ng/ml×h; plasma concentration after 96 h ([2]; 96 h): around 5 ng/ml; Cmax ([2]; four animals, 1 mg/kg): 640 ng/mL
35 ± 3 nM | GLP-1-(7-36)-(Q23N–A30Q)-amide-Q^30-PEG 20 kDa (HAEGTFTSDVSSYLEGNAAKEFIQ(mPEG 20 kDa)WLVKGR-NH2; UniProt P01275 98-127, looked up, variant Q23N A30Q) |  | In vitro insulin secretion, Relative potency ([1]; 1/(EC50 analog/EC50 GLP-1(7-36)-amide)): 0.017
1870 ± 1 nM | GLP-1-(7-36)-amide-Q^23-PEG 50 kDa: GLP-1(7-36)-amide monopegylated at glutamine 23 with branched 50 kDa mPEG-NH2 |  | 
